Reference: patent US20240301385, “DNA MODIFYING ENZYMES AND ACTIVE FRAGMENTS AND VARIANTS THEREOF AND METHODS OF USE” (LIFEEDIT THERAPEUTICS, INC., published 2024)

B1: SGN000929 sgRNA ; SGN000929 target (ssRNA ; dsDNA)
RNA: AUCUGGAGGGAACUUACAGCAUAUGGUCAUAGUUCCAUGAAAGCCAAAAGUGGCUUUGAUGUUUCUAUGAUAAGGGUUUCGGCCCGUGGCGUCGGGGAUCGCCUGCCCAUUCCGAUGGGCUUCUCCCCAUUUAUU
DNA 1: ATCTGGAGGGAACTTACAGCATATG
DNA 2: CATATGCTGTAAGTTCCCTCCAGAT
B2: SGN001101 sgRNA ; SGN001101 target (ssRNA ; dsDNA)
RNA: AUAUUUUCUUUAAUGGUGCCAGGCAGUCAUAGUUCCAUUAAAGCCAAAAGUGGCUUUGAUGUUUCUAUGAUAAGGGUUUCGACCCGUGGCGUCGGGGAUCGCCUGCCCAUUGAAAUGGGCUUCUCCCCAU
DNA 1: ATATTTTCTTTAATGGTGCCAGGCA
DNA 2: TGCCTGGCACCATTAAAGAAAATAT
B3: SGN000930 sgRNA ; SGN000930 target (ssRNA ; dsDNA)
RNA: GAACAACUCAAAUGGAAAUGAAUAUGUCAUAGUUCCAUGAAAGCCAAAAGUGGCUUUGAUGUUUCUAUGAUAAGGGUUUCGGCCCGUGGCGUCGGGGAUCGCCUGCCCAUUCCGAUGGGCUUCUCCCCAUUUAUU
DNA 1: GAACAACTCAAATGGAAATGAATAT
DNA 2: ATATTCATTTCCATTTGAGTTGTTC
B4: SGN000169 sgRNA ; SGN000169 target (ssRNA ; dsDNA)
RNA: CACAUCUCGAGCAAGACGUUGUCAUAGUUCCAUUAAAGCCAAAAGUGGCUUUGAUGUUUCUAUGAUAAGGGUUUCGACCCGUGGCGUCGGGGAUCGCCUGCCCAUUGAAAUGGGCUUCUCCCCAUUUAUU
DNA 1: CACATCTCGAGCAAGACGTT
DNA 2: AACGTCTTGCTCGAGATGTG

Tests used:
Test in all cases: cell_activity; HEK293FT; PAM SEQ 152
Conditions in all cases: tags: SV40 NLS, 3xFLAG N-term; nucleoplasmin NLS C-term
[1] = biological target: APG05840-L16-nAPG07433.1 (synthetic)
Procedure: (§1) 500 ng of plasmid comprising an expression cassette comprising a coding sequence for each fusion protein shown in Table 3 and 500 ng of plasmid comprising an expression cassette encoding an sgRNA shown in Table 4 were co-transfected into HEK293FT cells at 75-90% confluency in 24-well plates using Lipofectamine 2000 reagent (Life Technologies). Cells were then incubated at […] for 72 h. Following incubation, genomic DNA was then extracted using NucleoSpin 96 Tissue (Macherey-Nagel) following the manufacturer's protocol. The genomic region flanking the targeted genomic site was PCR amplified using the primers in Table 4 and products were purified using ZR-96 DNA Clean and Concentrator (Zymo Research) following the manufacturer's protocol. The purified PCR products were then sent for Next Generation Sequencing on Illumina MiSeq (2×250). Results were analyzed for INDEL formation or introduction of % specific cytosine mutations.
(§2) The position of each nucleotide in the target sequence was determined. “C17” indicates, for example, a cytosine at position 17 of the target sequence. The position of each nucleotide in the target sequence was determined by numbering the first nucleotide in the target sequence closest to the PAM as position 1, and the position number increases in the 3′ direction away from the PAM sequence.

[2] = biological target: APG05840.1-L16-nAPG07433.1 (truncated deaminase) (synthetic)
Procedure: as §1, §2

[3] = biological target: T1, APG00868-L16-nAPG07433.1 (synthetic)
T1 chain: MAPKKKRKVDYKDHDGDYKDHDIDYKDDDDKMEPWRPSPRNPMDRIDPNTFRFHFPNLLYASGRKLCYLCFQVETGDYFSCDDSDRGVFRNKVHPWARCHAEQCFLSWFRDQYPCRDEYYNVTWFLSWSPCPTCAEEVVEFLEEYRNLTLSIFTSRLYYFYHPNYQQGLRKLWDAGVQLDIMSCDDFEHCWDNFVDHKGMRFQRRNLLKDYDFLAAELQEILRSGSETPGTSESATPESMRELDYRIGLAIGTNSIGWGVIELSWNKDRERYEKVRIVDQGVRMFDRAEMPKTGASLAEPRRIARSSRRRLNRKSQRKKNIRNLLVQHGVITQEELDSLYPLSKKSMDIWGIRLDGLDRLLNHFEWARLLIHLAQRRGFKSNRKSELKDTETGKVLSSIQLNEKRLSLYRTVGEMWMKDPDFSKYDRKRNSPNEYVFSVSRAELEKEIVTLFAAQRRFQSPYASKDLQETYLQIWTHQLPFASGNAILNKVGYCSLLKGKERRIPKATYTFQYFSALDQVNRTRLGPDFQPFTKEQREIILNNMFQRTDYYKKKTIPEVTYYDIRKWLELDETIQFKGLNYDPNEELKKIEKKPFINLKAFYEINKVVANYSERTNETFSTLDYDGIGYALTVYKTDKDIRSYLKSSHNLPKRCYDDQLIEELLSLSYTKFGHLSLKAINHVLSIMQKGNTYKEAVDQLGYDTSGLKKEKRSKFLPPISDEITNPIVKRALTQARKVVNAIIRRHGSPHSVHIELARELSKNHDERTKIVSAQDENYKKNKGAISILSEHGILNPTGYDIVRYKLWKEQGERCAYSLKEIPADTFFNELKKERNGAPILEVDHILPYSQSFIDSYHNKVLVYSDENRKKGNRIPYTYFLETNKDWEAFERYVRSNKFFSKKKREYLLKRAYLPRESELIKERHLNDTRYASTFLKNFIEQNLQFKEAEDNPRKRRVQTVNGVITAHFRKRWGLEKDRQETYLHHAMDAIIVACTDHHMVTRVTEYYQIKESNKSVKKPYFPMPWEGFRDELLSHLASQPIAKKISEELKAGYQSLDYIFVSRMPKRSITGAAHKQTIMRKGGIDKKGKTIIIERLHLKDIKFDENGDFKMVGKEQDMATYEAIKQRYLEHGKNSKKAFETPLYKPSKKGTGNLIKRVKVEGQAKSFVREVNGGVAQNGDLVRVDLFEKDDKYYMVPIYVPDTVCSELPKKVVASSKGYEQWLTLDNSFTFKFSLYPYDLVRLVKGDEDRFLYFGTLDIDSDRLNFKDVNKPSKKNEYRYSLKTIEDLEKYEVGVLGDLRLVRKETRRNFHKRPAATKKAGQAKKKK
Procedure: as §1, §2

Binder | activity [1] | activity [2] | activity [3]
B1 | 27.7 % mutated reads | 22.3 % mutated reads | 20.6 % mutated reads
B2 | 24.3 % mutated reads | 23.8 % mutated reads | 24.4 % mutated reads
B3 | 22.4 % mutated reads |  | 
B4 |  | 30.2 % mutated reads | 16.4 % mutated reads
